Results: PMC4986862

Molecular target: BD–PTLΔC1 (PETAL LOSS with the C-terminal activation region removed, fused to the GAL4 binding domain) (Arabidopsis thaliana)
Assay: two-hybrid; quantitative: α-galactosidase activity of the MEL1 reporter in liquid cultures, triplicate technical assays; BD–PTLΔC1 bait

fold lower reporter (α-galactosidase) activation than AD–AKIN10: > 10 fold
B1: AD–AKIN11 (full-length AKIN11 fused to the GAL4 activation domain) (natural protein)
chain: MDHSSNRFGNNGVESILPNYKLGKTLGIGSFGKVKIAEHVVTGHKVAIKILNRRKIKNMEMEEKVRREIKILRLFMHPHIIRQYEVIETTSDIYVVMEYVKSGELFDYIVEKGRLQEDEARNFFQQIISGVEYCHRNMVVHRDLKPENLLLDSRCNIKIADFGLSNVMRDGHFLKTSCGSPNYAAPEVISGKLYAGPEVDVWSCGVILYALLCGTLPFDDENIPNLFKKIKGGIYTLPSHLSSEARDLIPRMLIVDPVKRITIPEIRQHRWFQTHLPRYLAVSPPDTVEQAKKINEEIVQEVVNMGFDRNQVLESLRNRTQNDATVTYYLLLDNRFRVPSGYLESEFQETTDSGSNPMRTPEAGASPVGHWIPAHVDHYGLGARSQVPVDRKWALGLQSHAHPREIMNEVLKALQELNVCWKKIGHYNMKCRWVPGLADGQNTMVNNQLHFRDESSIIEDDCAMTSPTVIKFELQLYKAREEKYLLDIQRVNGPQFLFLDLCAAFLTELRVI
